The labels stand for the following.
T1: Myc-DC-SIGNR (UniProt Q9H2X3 1-399)
T1 sequence (looked up): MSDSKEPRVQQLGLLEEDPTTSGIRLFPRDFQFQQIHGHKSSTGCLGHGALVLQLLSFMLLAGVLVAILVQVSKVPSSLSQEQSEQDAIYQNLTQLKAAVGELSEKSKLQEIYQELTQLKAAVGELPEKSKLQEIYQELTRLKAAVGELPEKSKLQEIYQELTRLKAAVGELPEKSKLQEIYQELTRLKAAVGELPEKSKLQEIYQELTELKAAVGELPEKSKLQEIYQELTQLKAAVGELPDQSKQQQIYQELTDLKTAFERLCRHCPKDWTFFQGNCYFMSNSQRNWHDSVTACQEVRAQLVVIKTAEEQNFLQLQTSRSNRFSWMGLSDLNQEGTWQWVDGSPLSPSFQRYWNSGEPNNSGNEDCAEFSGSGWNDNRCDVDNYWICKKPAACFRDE

B1: Flag-LSECtin D1 (deletion of the potential endocytic motif) (receptor, UniProt Q6UXB4 1-293, looked up)
chain: MDTTRGGSSEEVPGGPWGRWVHWSRRPLFLALAVLVTTVLWAVILSILLSKASTERAALLDGHDLLRTNASKQTAALGALKEEVGDCHSCCSGTQAQLQTTRAELGEAQAKLMEQESALRELRERVTQGLAEAGRGREDVRTELFRALEAVRLQNNSCEPCPTSWLSFEGSCYFFSVPKTTWAAAQDHCADASAHLVIVGGLDEQGFLTRNTRGRGYWLGLRAVRHLGKVQGYQWVDGVSLSFSHWNQGEPNDAWGRENCVMMLHTGLWNDAPCDSEKDGWICEKRHNC
B2: Flag-LSECtin M1 (N73A) (receptor, UniProt Q6UXB4 1-293, looked up)
chain: MDTTRYSKWGGSSEEVPGGPWGRWVHWSRRPLFLALAVLVTTVLWAVILSILLSKASTERAALLDGHDLLRTAASKQTAALGALKEEVGDCHSCCSGTQAQLQTTRAELGEAQAKLMEQESALRELRERVTQGLAEAGRGREDVRTELFRALEAVRLQNNSCEPCPTSWLSFEGSCYFFSVPKTTWAAAQDHCADASAHLVIVGGLDEQGFLTRNTRGRGYWLGLRAVRHLGKVQGYQWVDGVSLSFSHWNQGEPNDAWGRENCVMMLHTGLWNDAPCDSEKDGWICEKRHNC
B3: Flag-LSECtin M2 (N159A) (receptor, UniProt Q6UXB4 1-293, looked up)
chain: B2 chain with A73N, N159A
B4: Flag-LSECtin D3 (deficiency of the CRD/CTLD domain) (domain or fragment, UniProt Q6UXB4 1-162, looked up)
chain: MDTTRYSKWGGSSEEVPGGPWGRWVHWSRRPLFLALAVLVTTVLWAVILSILLSKASTERAALLDGHDLLRTNASKQTAALGALKEEVGDCHSCCSGTQAQLQTTRAELGEAQAKLMEQESALRELRERVTQGLAEAGRGREDVRTELFRALEAVRLQNNSC

Residue numbers refer to the chain shown, from its start. Names may count otherwise.

The experiment addresses T1, Myc-DC-SIGNR. Nature of the experiment: co-IP.
For B1, the “co-precipitated amount relative to wild-type LSECtin (onefold)” value is 1.2 fold of wild type. In the case of B2 it was 0.8 fold of wild type.

Consider B3, for which the “co-precipitated amount relative to wild-type LSECtin (onefold)” value was 1.5 fold of wild type. In the case of B4 it was 0.8 fold of wild type.

(Values after article PMC7088854 (Molecular and Cellular Biochemistry, 2009).)
